Read-outs that look alike come from different tables or passages of the source.

The term Kd denotes the constant that tells how readily two partners part at equilibrium. High values mean weaker binding, low ones tighter binding.

The target in experiment [1] is T1, CHO expressed human interferon gamma (hIFNγ) (human, UniProt P01579 24-161, glycosylated (highly glycosylated form purified)).
T1 chain: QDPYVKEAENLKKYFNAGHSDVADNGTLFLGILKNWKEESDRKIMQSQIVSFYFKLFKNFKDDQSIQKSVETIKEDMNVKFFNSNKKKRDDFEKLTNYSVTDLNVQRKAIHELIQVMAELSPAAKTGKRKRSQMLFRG
In words: BIAcore. In general terms: In SPR one partner is held on a chip, and binding of the other changes the refractive index at the surface.

Experiment [2] concerns the target T1, CHO expressed human interferon gamma …. In words: BIAcore.

B1: BS-A Fab (soluble, purified) (Fab, V domains shown)
VH: QVQLQQWGAGLLKPSETLSLTCAVYGGSFSGYYWSWIRQPPGKGLEWIGEINHSGSTNYNPSLKSRVTISVDTSKNQFSLKLSSVTAADTAVYYCARGRARNWRSRFDYWGQGTLVTVSS
VL: NFMLTQPHSVSESPGKTVTISCTGSSGSIASHYVQWYQQRPGSAPTNVIYEDKERPSGVPDRFSGSIDSSTNSASLTISGLKTEDEADYYCQSYDSSNQWVFGGGTKLTVLG
In turn, B1 gave a Kd in experiment [1] of 84.3 nM.

B2: BS-A IgG (antibody, V domains shown)
VH: QVQLQQWGAGLLKPSETLSLTCAVYGGSFSGYYWSWIRQPPGKGLEWIGEINHSGSTNYNPSLKSRVTISVDTSKNQFSLKLSSVTAADTAVYYCARGRARNWRSRFDYWGQGTLVTVSS
VL: NFMLTQPHSVSESPGKTVTISCTGSSGSIASHYVQWYQQRPGSAPTNVIYEDKERPSGVPDRFSGSIDSSTNSASLTISGLKTEDEADYYCQSYDSSNQWVFGGGTKLTVLG
As to B2, the Kd in experiment [2] and in experiment [1] was 6 nM each time.

B3: GP-A IgG (antibody, V domains shown)
VH: QVQLVETGGGVVQPGRSLRLSCAASGFTFSSYAMHWVRQAPGKGLEWVAVISYDGSNKYYADSVKGRFTISRDNSKNTLYLQMNSLRAEDTAVYYCASDLVLTMTSRRAAFDIWGQGTMVTVSS
VL: SYELTQPPSVSVSPGQTARITCSGDVLARKYARWFQQKPGQAPVLVIYKDRERPSGIPERFSGSTSGTTVTLTISGAQVEDEADYYCYSAADNRGVFGGGTKLTVLR
As to B3, the dissociation constant Kd in experiment [2] and in experiment [1] was 8 nM throughout.

B4: Fab phage clone "GP-A" (Fab, V domains shown)
VH: QVQLVETGGGVVQPGRSLRLSCAASGFTFSSYAMHWVRQAPGKGLEWVAVISYDGSNKYYADSVKGRFTISRDNSKNTLYLQMNSLRAEDTAVYYCASDLVLTMTSRRAAFDIWGQGTMVTVSS
VL: SYELTQPPSVSVSPGQTARITCSGDVLARKYARWFQQKPGQAPVLVIYKDRERPSGIPERFSGSTSGTTVTLTISGAQVEDEADYYCYSAADNRGVFGGGTKLTVLR
Consider B4, for which the Kd in experiment [1] was 150 nM.

B5: 57E IgG (antibody, V domains shown)
VH: QVQLQESGPGLVKPSETLSLTCAVSGGSISSGGYSWSWIRQPPGKGLEWIGYIYHSGSTYYNPSLKSRVTISVDRSKNQFSLKLSSVTAADTAVYYCARGDWGYFDYWGQGTLVTVSS
VL: NFMLTQPHSVSESPGKTVTISCTGSSGSIANNYVHWYQQRPGSAPTTVIFEDDQRPSGVPDRFSGSVDSSSNSASLSISGLKTEDEADYYCQSYDNSNSFVVFGGGTKLTVLG
In experiment [2], B5 yielded a dissociation constant (Kd) of 200 nM.

B6: Fab phage clone "IFN-A" (Fab, V domains shown)
VH: EVQLQQWGAGLLKPSETLSLTCAVYGGSFSGYYWSWIRQPPGKGLEWIGEINHSGSTNYNPSLKSRVTISVDTSKNQFSLKLSSVTAADTAVYYCARGWPTYVWGSYRPKGYFDYWGQGTLVTVSS
VL: EIVLTQSPLSLPVTPGEPASISCRSSQSLLHTNEYNYLDWYLQKPGQSPQLLIYLGSNRAPGVPDRFSGSGSGTDFTLRISRVEADDVGVYYCMQALQTPRTFGQGTKLEIKR
As for B6, in experiment [1], the Kd was found to be 420 nM.

B7: IFN-A IgG (antibody, V domains shown)
VH: EVQLQQWGAGLLKPSETLSLTCAVYGGSFSGYYWSWIRQPPGKGLEWIGEINHSGSTNYNPSLKSRVTISVDTSKNQFSLKLSSVTAADTAVYYCARGWPTYVWGSYRPKGYFDYWGQGTLVTVSS
VL: EIVLTQSPLSLPVTPGEPASISCRSSQSLLHTNEYNYLDWYLQKPGQSPQLLIYLGSNRAPGVPDRFSGSGSGTDFTLRISRVEADDVGVYYCMQALQTPRTFGQGTKLEIKR
Consider B7, for which the Kd in experiment [2] and in experiment [1] was 18 nM throughout.

B8: BS-B Fab (soluble, purified) (Fab, V domains shown)
VH: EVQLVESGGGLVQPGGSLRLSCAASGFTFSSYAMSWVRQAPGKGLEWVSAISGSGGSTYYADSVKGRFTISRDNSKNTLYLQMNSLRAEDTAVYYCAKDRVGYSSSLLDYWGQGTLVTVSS
VL: NFMLTQPHSVSESPGKTVTISCTRSSGSIASYYVQWYQQRPGSSPTTVIYEDDQRPSGVPDRFSGSIDSASNSASLTISGLQTEDEADYYCQSYDRNSLVFGGGTKLTVLG
In turn, B8 showed a Kd in experiment [1] of 83.5 nM.

B9: BS-B IgG (antibody, V domains shown)
VH: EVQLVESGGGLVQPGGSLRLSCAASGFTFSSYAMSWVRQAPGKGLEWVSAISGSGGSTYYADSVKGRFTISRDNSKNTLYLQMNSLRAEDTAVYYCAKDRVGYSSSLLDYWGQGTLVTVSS
VL: NFMLTQPHSVSESPGKTVTISCTRSSGSIASYYVQWYQQRPGSSPTTVIYEDDQRPSGVPDRFSGSIDSASNSASLTISGLQTEDEADYYCQSYDRNSLVFGGGTKLTVLG
Take B9: the equilibrium dissociation constant (Kd) in experiment [2] and in experiment [1] was 0.5 nM each time.

Source of the values: US20030099647A1 (published 2003).
